Here are results for eight molecules from patent publication US20220396632A1 (VERSEAU THERAPEUTICS, published 2022).

Test [1] addresses T1, Sulfotyr fibrinogen γ peptide (not fully specified; Y8 and Y12 sulfated (SO3); C-terminal biotin).
T1 construct: also called Fibrinogen gamma peptide; human sulfotyrosinylated fibrinogen peptide
T1 peptide: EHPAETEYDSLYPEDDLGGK
Nature of the test: ELISA, 50 nM mAb. How it is done:
(§1) Recombinant PSGL-1-hFc1 chimera protein consisting of PSGL-1's extracellular domain (ECD) served as a positive control. […] Primary antibody was added (25 ul per well) in duplicate at 50 nM in assay buffer (blocking buffer containing 0.05% Tween®20) into test and control (just blocked) wells and the plate incubated for 45 min at 37° C.
For orientation: ELISA stands for enzyme-linked immunosorbent assay.

The target of test [2] is T2, Recombinant human PSGL-1(ECD)-hFc1 (R&D Systems, Cat. 3345-PS) (human, UniProt Q14242 42-305).
T2 construct: Bought; Gln42-Val295 counted on AAC50061; also called PSGL-1-Fc; PSGL-1-hFc1 chimera; not shown: human IgG1 Fc, Pro100-Lys330
T2 sequence: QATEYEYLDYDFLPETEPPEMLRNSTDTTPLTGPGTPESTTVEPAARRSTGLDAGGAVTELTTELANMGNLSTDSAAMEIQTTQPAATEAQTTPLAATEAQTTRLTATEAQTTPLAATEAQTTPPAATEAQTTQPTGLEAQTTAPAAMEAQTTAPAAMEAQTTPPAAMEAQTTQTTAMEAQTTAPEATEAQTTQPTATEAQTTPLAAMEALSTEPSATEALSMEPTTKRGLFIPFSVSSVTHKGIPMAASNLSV
The test can be described thus: ELISA, 50 nM mAb. As to the method: as §1

For test [3], the target named is T3, Sulfotyrosine CCR2b biotin peptide (human).
T3 construct: also called CCR2b peptide
T3 peptide: TTFFD[sY]D[sY]GAPSHGGK(Biotin)
The test can be described thus: ELISA, 50 nM mAb. As to the method: as §1

Test [4] addresses T4, Scrambled Y42,52,63(SO3) PSGL-1(42-62) biotin peptide (sulfotyrosine at peptide positions 1, 11 and 22; C-terminal Lys-biotin).
T4 peptide: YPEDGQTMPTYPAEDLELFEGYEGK
Nature of the test: ELISA, immobilized biotin peptide. In outline:
(§2)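 In this ELISA, half-well high binding plates (Corning Cat. #3690) received 3 ug/mL/25 ul per well of biotin-tagged PSGL-1 peptides covering residues 42 to 62, diluted in PBS, pH 7.4, and coated overnight at 4° C. Duplicate readings for each antibody were averaged and the average assay background was subtracted. PSGL-1 protein or peptide was the positive control.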

For test [5], the target named is T5, Biotin PSGL-1(42-62) peptide, unmodified (human, C-terminal Lys-biotin).
T5 construct: Residues 42-62 followed by GGGK-biotin; also called WT; wild-type
T5 peptide: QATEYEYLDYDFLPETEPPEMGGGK
The test can be described thus: ELISA, immobilized biotin peptide. In outline: as §2

Test [6] has as its target T6, Biotin Y46,48,51(SO3) PSGL-1(42-62) peptide (human, sulfotyrosine at Y46, Y48 and Y51; C-terminal Lys-biotin).
T6 construct: also called fully sulfated N-terminal PSGL-1 peptide
T6 peptide: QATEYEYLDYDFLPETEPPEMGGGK
The test can be described thus: ELISA, immobilized biotin peptide. In outline: as §2

In test [7] the target is T7, Cynomolgus PSGL-1(ECD)-hFc1 (cynomolgus macaque).
T7 construct: also called Cyno PSGL1-Fc; Cyno PSGL-1(ECD)-Fc
The test can be described thus: ELISA, 20 nM mAb on plate cyno PSGL-1(ECD)-Fc. Summed up: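 Cyno PSGL-1(ECD) coated overnight at 4 °C, 3 µg/mL in PBS pH 7.4. Anti-PSGL-1 IgG applied at single 20 nM or as 0.003–200 nM curves, 45 min at 37 °C. HRP/TMB read at A450, with duplicates averaged and background subtracted.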

Test [8] has as its target T2, Recombinant human PSGL-1(ECD)-hFc1 (R&D …). Nature of the test: blocking ELISA vs L-selectin-Fc. As to the method:
A typical selectin blocking ELISA assay involved coating high binding half-well plates (Corning, Cat. #3690) with 2.5 ug/mL/25 ul per well of recombinant PSGL-1-Fc protein (R&D Systems, Cat #3345-PS) in PBS, pH 7.4, overnight at 4° C. […] Antibody (test and controls) was serially diluted (25 ul/well) in duplicate in assay buffer (3% BSA in wash buffer) into appropriate wells and the plate incubated for 45 min at 37° C. […] The plate was washed ×3 and HRP-conjugated streptavidin was added in assay buffer [25 ul per well; (Jackson Immunoresearch, Cat. #016-030-084)] and the plate incubated for 45 min at 37° C. […] For each antibody, an IC50 value was determined from sigmoidal fitted titration curves.

Test [9] has as its target T8, Cynomolgus PSGL-1(ECD)-HIS (cynomolgus macaque).
T8 construct: also called Cyno PSGL1-His
T8 chain: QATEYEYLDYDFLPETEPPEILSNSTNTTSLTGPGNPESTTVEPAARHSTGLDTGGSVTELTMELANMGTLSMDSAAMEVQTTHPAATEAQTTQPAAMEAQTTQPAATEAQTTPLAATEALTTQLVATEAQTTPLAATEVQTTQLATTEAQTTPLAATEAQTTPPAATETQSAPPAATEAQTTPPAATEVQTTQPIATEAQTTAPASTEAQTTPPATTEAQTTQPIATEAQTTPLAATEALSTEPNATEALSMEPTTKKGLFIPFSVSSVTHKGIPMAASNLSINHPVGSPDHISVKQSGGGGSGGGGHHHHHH
The test can be described thus: ELISA, plate cyno PSGL-1(ECD)-HIS. How it is done: Antibody binding to plate-immobilized cyno PSGL-1(ECD) was determined either at one concentration (20 nM) or by generating full antibody binding curves (0.003-200 nM). A typical ELISA was performed by overnight coating at 4° C. with 3 ug/mL/25 ul per well of recombinant cyno PSGL-1(ECD) protein in PBS, pH 7.4, in high binding half-well plates (Corning Cat. #3690). […] Anti-PSGL-1 IgG in assay buffer (blocking buffer containing 0.05% tween 20) was added into test and control wells (20 nM/25 ul/well) and the plate incubated for 45 min at 37° C. […] The plate was incubated for 45 min at 37° C., and mAb bound to plate-immobilized target determined at A450 nm using HRP substrate (3,3′,5,5′-tetramethylbenzidine (TMB)). For each antibody, duplicate values were averaged and assay background subtracted.

Non-standard residues stand in square brackets, D forms with d. No end group written: not given here. *: point of attachment. Biotin = O=C1N[C@H]2[C@H](CS[C@H]2CCCCC(=O)*)N1; sY = N[C@@H](Cc1ccc(OS(=O)(=O)O)cc1)C(=O)O

T7 sequence (chain, as listed by the source limits assumed): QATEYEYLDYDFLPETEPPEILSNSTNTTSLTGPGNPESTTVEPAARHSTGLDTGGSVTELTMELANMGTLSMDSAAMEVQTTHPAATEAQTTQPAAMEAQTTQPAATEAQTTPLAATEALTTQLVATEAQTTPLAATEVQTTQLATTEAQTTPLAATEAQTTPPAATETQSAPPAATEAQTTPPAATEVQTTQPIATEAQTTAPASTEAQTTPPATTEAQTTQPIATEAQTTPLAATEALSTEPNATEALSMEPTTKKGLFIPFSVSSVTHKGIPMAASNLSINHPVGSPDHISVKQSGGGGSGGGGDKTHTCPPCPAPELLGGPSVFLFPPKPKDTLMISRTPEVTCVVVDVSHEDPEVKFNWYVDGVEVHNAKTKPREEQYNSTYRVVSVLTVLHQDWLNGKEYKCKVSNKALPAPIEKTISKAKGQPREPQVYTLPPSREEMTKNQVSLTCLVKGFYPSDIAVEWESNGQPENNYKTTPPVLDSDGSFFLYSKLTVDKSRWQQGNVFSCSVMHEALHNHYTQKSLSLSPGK

B1: 05E08 (antibody, IgG4, V domains shown)
VH: EVQLVQSGGGVVQPGRSLRLSCAASGFTFSTYAMHWVRQAPGKGLEWVAVISYDGSNKYYADSVKGRFTISRDNSRNTLFLQMNSLRDEDTAVYYCAKRGTMIRGERSLDFWGQGTLVTVSS
VL: AIQMTQSPSFLSASVGDRVTITCRASQGINSWLAWYQQKPGTAPNLLIHAASTLQSGVPSRFSGSRSGTEFTLTISSLQPEDFATYYCQQLQSYPLTFGQGTRLEIK
What is called EC50 is the concentration at which the effect is half-maximal. The low end stands for higher potency in that assay, the high end for lower potency in that assay. For the molecule B1, the figures for the “binding normalized to PSGL-1” value in test [1] and in test [3] were 1.05 and 0.85, respectively. Also, the A450nm in test [2] turned out to be 2.46 A450nm; in test [7] it was 0.77 A450 nm. For the same molecule, the “A450nm, 20 nM mAb” value in test [4] came to 0.01 A450nm; in test [6], 2.57 A450nm. Moreover, the binding result in test [4] was “no binding (tested: 20 nM)”. The concentration for a half-maximal effect (EC50) is over 500 nM in test [5] and about 0.01 nM in test [6].

B2: 03D07 (antibody, IgG4, V domains shown)
VH: EVKLLESGGGLVQPGGSLRLSCAASGFTFSSYALSWVRQAPGKGLEWVSAISGSGGNTYYADSVKGRFTISRDNSKNTLYLQMNSLRAEDTAVYYCAKVVGATNYWGQGTLVTVSS
VL: DIVMTQTPLSLPVTLGQPASISCRSSQSLVYSDGHTYLSWFHQRPGQSPRRLIYKVSIRDSGVPDRFSGSGSGTDFTLKISRVEAEDVGVYYCMQRLQIPLTFGGGTKVEIK
One may read the IC50 as the concentration needed to halve the response being measured. Take B2: the “binding normalized to PSGL-1” value in test [1] amounted to 0.49; in test [3], 0.16. Also, the A450nm amounted to 2.25 A450nm in test [2] and 0.74 A450 nm in [7]. The “% max Block” value in test [8] is 100%. Further, in test [8], the IC50 is 6 nM. Also, the binding result in test [4] is “no binding (tested: 20 nM)”. The half-maximal effective concentration (EC50) in test [5] was over 500 nM. The “A450nm, 20 nM mAb” value in test [6] was determined as 2.73 A450nm.

B3: 09C10 (antibody, V domains shown)
VH: EVKLLESGGGLIQPGGSLRLSCAASGFTVSNNYVTWVRQAPGKGLELVSSIYSGGGTYYADSVKGRFTISRDNSKNTVYLQMNSLRADDTAVYYCARNVPVTNFGYWGQGTLVTVSS
VL: DIVMTQSPLSLPVTLGQPASISCRSSQSLVYRDGNTYLNWFQQRPGQSPRRLIYKVSNRDSGVPDRFSGSGSGTDFTLKISRVEAEDVGVYYCMQLTHWPPGFAQGTKLEIK
Turning to B3, the “binding normalized to PSGL-1” value was 1.3 in test [1] and 1.23 in [3]. The figures for the A450nm in [2] and in test [7] were 2.16 A450nm and 1.17 A450 nm, respectively. In addition, the results for the “A450nm, 20 nM mAb” value in test [4], in test [5] and in [6] were 0.21 A450nm, 0.2 A450nm and 2.77 A450nm, respectively.

B4: 10F01 (antibody, IgG4, V domains shown)
VH: EVQLVQSGGGLVQPGGSLRLSCAASGFTFSSYAMSWVRQAPGKGLEWVSALRGGDGGTYHADSVKGRFTISGDSSKNTLYLQMNSLRAEDTAVYYCARRMVGAAYAFDIWGQGTMVTVSS
VL: LPVLTQPHSVSESPGKTVTISCTRSSGSIADNFVQWYRQRPGSAPTTVIYEGDQRPSGVPGRFSGSIDSSSNSASLTISGLQTDDEADYYCQSFDSYNRRTHVVFGGGTKLTVL
As to B4, the “binding normalized to PSGL-1” value in [1] came to 0.06; in test [3], 0.03. Further, the results for the A450nm in [2] and in test [7] were 2.1 A450nm and 1.22 A450 nm, respectively. In addition, in [8], the “% max Block” value worked out at 100%. Further, the IC50 in test [8] came to 6 nM. Besides, the “A450nm, 20 nM mAb” value in test [6] turned out to be 2.39 A450nm.

B5: 20I15 (antibody, V domains shown)
VH: EVKLVESGGGLVQPGGSLSLSCAASGFTFTDYYMSWVRQPPGKALEWLGFIRNKANGYTTEYSASVKGRFTISRDNSQSILYLQMNALRAEDSATYYCARTYLRRGYFDVWGTGTTVTVSS
VL: DIVLTQSPASLAVSLGQRATISCRASKSVSTSGYSYMHWFQQKPGQPPKLLIYLASNLESGVPARFSGSGSGTDFTLNIHPVEEEDAATYYCQHSRELPLTFGAGTKLELK
notes: From mouse immunisation; only variable domains given; also called 20115
For B5, the entries for the “binding normalized to PSGL-1” value in test [1] and in test [3] were 0.37 and 0.21, respectively. In test [2], the A450nm is 2.45 A450nm. Moreover, the “% max Block” value in [8] worked out at 65%. Moreover, in test [8], the IC50 is 20 nM. In addition, the EC50 is about 300 nM in test [5] and 0.485 nM in [6].

B6: 16E17 (antibody, V domains shown)
VH: QIQLVQSGPELKKPGETVKISCKASGYAFTTYGMSWVKQAPGKGLKWMGWINTYSGVPKYADDFKGRFAFSLETSASTAYLHINNLKNEDTATYFCGRHYYGSSYFDYWGQGTTLTVSS
VL: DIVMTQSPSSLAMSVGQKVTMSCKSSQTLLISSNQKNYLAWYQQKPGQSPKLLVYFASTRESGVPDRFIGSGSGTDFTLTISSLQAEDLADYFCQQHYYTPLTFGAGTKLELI
notes: From mouse immunisation; only variable domains given
For B6, the “% max Block” value in [8] was 0%. The response in [9] was half-maximal at 0.53 nM (EC50).

B7: 06A07 (antibody, IgG4, V domains shown)
VH: QVQLVQSGPELKNPGASVKVSCKASGYSFTNFYINWVRQAPGRGLEWVGWISPNNGNTHYARNLQGRVTMTTDTSTNTAYLELKNLRSDDTAIYFCGRSVSMGYWGQGTLVTVSS
VL: LPVLTQPPSVSKGLRQTATLTCTGNSKNVGNQGAAWLQQHQGQPPKLLSYRNNNRPSGISERFSASRSGNTASLTITGLQPEDEADYYCSAWDSSLSAQVFGGGTKLTVL
Consider B7, for which the figures for the “binding normalized to PSGL-1” value in test [1] and in [3] were 0.69 and 0.43, respectively. Besides, the A450nm was found to be 2.51 A450nm in test [2] and 1.27 A450 nm in test [7]. The “A450nm, 20 nM mAb” value in test [4] was determined as 0.02 A450nm; in [6] it was 2.7 A450nm. Also, the binding result in test [4] is listed as “no binding (tested: 20 nM)”. Further, the EC50 in test [5] was 7.2 nM; in test [6] it was about 0.02 nM.

B8: 06C04 (antibody, IgG4, V domains shown)
VH: EVQLVESGGGLVQPGGSLRLSCAASGFTFSDHYMDWVRQAPGKGLEWVGRSRNKVKSYTTAYAASVEGRITISRDDSKNSLYLEMNSLKTEDTAVYYCVRVRWGGAFDIWGQGTMVTVSS
VL: QPVLTQPPSASGSPGQSVTISCTGTSSDVGGYNYVSWYQQHPGKAPKLMIYEVSKRPSGVPDRFSGSKSGNTASLTVSGLQAEDEADYYCSSYAGSNNLRVFGGGTKLTVL
On to B8, for which the “binding normalized to PSGL-1” value turned out to be 1.15 in test [1] and 0.23 in test [3]. The A450nm in [2] was found to be 2.22 A450nm; in test [7], 0.55 A450 nm. Further, in test [4], the binding result was “no binding (tested: 20 nM)”. Further, the “A450nm, 20 nM mAb” value in test [5] stood at 0.07 A450nm; in test [6] it was 2.64 A450nm.
